B1: Pseudomonas aeruginosa isocitrate dehydrogenase ICD (PA2623) (enzyme, Pseudomonas aeruginosa strain PAO1, UniProt Q02NB5 1-418, looked up)
chain: MGYQKIQVPATGDKITVNADMSLSVPKNPIIPFIEGDGIGVDISPVMIKVVDAAVEKAYKGERKIAWMEVYAGEKATQVYDQDTWLPQETLDAVRDYVVSIKGPLTTPVGGGIRSLNVALRQQLDLYVCQRPVRWFEGVPSPVKKPGDVDMVIFRENSEDIYAGVEWKAGSPEAEKVIKFLTEEMGVKKIRFTENCGIGIKPVSQEGTKRLVRKALQYAVDNDRSSVTLVHKGNIMKFTEGAFKDWGYEVARDEFGAELLDGGPWMQFKNPKTGKNVVVKDVIADAMLQQILLRPAEYDVIATLNLNGDYLSDALAAEVGGIGIAPGANLSDSVAMFEATHGTAPKYAGQDKVNPGSLILSAEMMLRHMGWTEAADLIIKGTNGAIAAKTVTYDFERLMDGATLLSCSEFGDAMIAKM
notes: isocitrate dehydrogenase ICD, ORF PA2623 of Pseudomonas aeruginosa strain PAO1, calculated molecular mass 45 kDa; The ORF was cloned into a pMAL-c2X derivative with a hexa-histidine tag on the N-terminus of MBP; The His6-MBP tag was cut off with Factor Xa; also called P. aeruginosa ICD; source: E. coli DH5α, purified (amylose resin, Factor Xa cleavage, Ni-NTA flow through); not shown: His6, …
B2: Pseudomonas aeruginosa isocitrate lyase (ICL, PA2634) (enzyme, Pseudomonas aeruginosa strain PAO1, UniProt Q9I0K4 1-531, looked up)
chain: MSAYQNEIKAVAALKEKNGSSWSAINPEYAARMRIQNRFKTGLDIAKYTAAIMRKDMAEYDADSSVYTQSLGCWHGFIGQQKLISIKKHLKTTNKRYLYLSGWMVAALRSDFGPLPDQSMHEKTAVSGLIEELYTFLRQADARELDLLFTGLDAARAAGDKAKEAELLAQIDNFETHVVPIIADIDAGFGNAEATYLLAKKMIEAGACCIQIENQVSDEKQCGHQDGKVTVPHIDFLAKINAVRYAFLELGVDDGVIVARTDSLGAGLTKQIAVTNEPGDLGDLYNSFLDCEEISESELGNGDVVIKREGKLLRPKRLASNLFQFRKGTGEDRCVLDCITSLQNGADLLWIETEKPHVGQIKAMVDRIREVIPNAKLVYNNSPSFNWTLNFRQQVFDAFVAEGKDVSAYDRNKLMSVEYDDTELAKVADEKIRTFQRDGSAHAGIFHHLITLPTYHTAALSTDNLAKGYFADEGMLAYVKGVQRQELRQGIACVKHQNMAGSDIGDNHKEYFAGEAALKASGKDNTMNQFH
notes: isocitrate lyase (ICL), ORF PA2634 of Pseudomonas aeruginosa strain PAO1, 531 amino acids; The ORF was cloned into a pMAL-c2X derivative with a hexa-histidine tag on the N-terminus of MBP; The His6-MBP tag was cut off with Factor Xa; Crystallised with Ca2+ and glyoxylate; also called P. aeruginosa ICL; source: E. coli DH5α, purified (amylose resin, Factor Xa cleavage, Ni-NTA flow through); not …

Target: the molecule itself
Assay: SEC-MALS; TSK-Gel G3000 SWXL column, 150 mM NaCl, 20 mM Tris-HCl (pH 8.0), 0.5 mL/min, Mini-DAWN light scattering detector

| Protein | stoichiometry N |
| --- | --- |
| B1 | 2 |
| B2 | 4 |

Reference: publication doi:10.1101/318345, “Three enzymes and one substrate; regulation of flux through the glyoxylate shunt in the opportunistic pathogen, Pseudomonas aeruginosa” (bioRxiv, 2018)
